From patent publication CN112225809A (FUZHOU CHUANGFANG PHARMACEUTICAL TECH CO LTD, dated 2021)
One block for each binder: values may come before it.

Legend:
[1] = biological target: T1, Human PD1/PDCD1 Protein Biotinylated (Sinobiological, Cat.No.10377-H03H-B) (human, UniProt Q15116 25-167, biotinylated); test: BLI (Octet Red96), biotinylated PD-1 on SA sensor, antibody in solution from 50 nM in two-fold dilutions
T1 construct: Bought reagent; also called 抗原; 人PD-1

[2] = biological target: T2, hPD1/Fc of human IgG1 (fluorescently labelled) (human, UniProt Q15116 25-167, limits assumed, labelled with Alexa Fluor 488 (Example 2); printed as hPD-1/hFc-FITC in Example 5.5); test: flow cytometry blocking assay: Alexa Fluor 488 labelled hPD1/Fc on SPC-A1-PDL1 cells
T2 construct: also called hPD-1/hFc-FITC; 荧光标记的PD1(Dimeric); not shown: Fc of human IgG1
T2 sequence (Q15116 25-167 limits assumed): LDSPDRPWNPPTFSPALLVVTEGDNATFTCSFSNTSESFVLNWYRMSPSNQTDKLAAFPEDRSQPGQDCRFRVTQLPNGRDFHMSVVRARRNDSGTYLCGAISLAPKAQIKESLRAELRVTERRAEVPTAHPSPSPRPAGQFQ

T1 sequence (Q15116 25-167 limits assumed): as above

Kd [1]: 3.34 pM
koff [1]: 5.43e-06 s⁻¹
kon [1]: 1.63e+06 M⁻¹ s⁻¹
B1: hUM1-30 (antibody, human IgG4 S228P, kappa, V domains shown)
VH: EVQLVESGGGLVQPGGSLRLSCAASGFTFSTYGMSWVRQAPGKGLEWVSTISGGGRYTYYPDSVKGRFTISRDNSKNTLYLQMNSLRAEDTAVYYCARQKGTTWFAHWGQGTLVTVSS
VL: DIQMTQSPSSLSASVGDRVTITCRASESVDDNGISFMNWFQQKPGKAPKLLIYAASNQGSGVPSRFSGSGSGTDFTLTISSLQPEDFATYYCQQSKEVPWTFGQGTKVEIKR
notes: Humanised from UM1-56; also called 人源化PD-1单克隆抗体(hUM1-30); UM1-56H-1 + UM1-56K-2

binding result [2]: binds
B2: UM1-56 (antibody, mouse IgG1, V domains shown)
VH: EVKLVESGGGLVKPGGSLKLSCAASGFTFSTYGMSWVRQTPEKRLEWVATISGGGRYTYYPDSVKGRFTISRDNAKNNLYLQMSSLRSEDTALYYCARQKGTTWFAHWGQGTLVTVSA
VL: not shown
notes: Mouse hybridoma antibody purified on Protein G; primers were designed on mouse IgG1 and kappa; also called 鼠源PD-1单克隆抗体UM1-56
